Test results: patent publication US10100120B2, “Antibody which specifically binds to human CRTH2” (KYOWA HAKKO KIRIN CO., LTD, priority 2015, dated 2018)

Tests used:
human eosinophils = assay: Eosinophil depletion (cytotoxic) activity in human peripheral blood cells, flow cytometry; type: cell-based; conditions: 37° C., 20 hours
Protocol: Human peripheral blood collected by adding a heparin sodium injection liquid was centrifuged at 4° C. and 1500 rpm for 30 minutes, and the plasma was recovered.
After the plasma was recovered, PBS (NACALAI TESQUE, Inc.) was added to the pellet containing the red blood up to the original volume of blood and the pellet was suspended. Next, to 1 mL of the suspension, 10 mL of hemolyzing solution [solution obtained by diluting 10×RBC Lysis buffer (eBioscience) 10 times with sterile water] was added to be mixed by inversion. The resultant was allowed to stand at room temperature for 10 minutes and centrifuged at room temperature and 1500 rpm for 5 minutes and washed twice with PBS after the supernatant was removed therefrom.
Thereafter, the cell pellet was suspended with the recovered plasma and the cells were seeded in a 48-well plate at 300 μL/well, each of chLym2, humanized Lym2 antibodies LV0HV0, LV0HV1, and LV0HV2a, or an isotype control antibody [IgG1 antibody prepared according to the method described in Example 5 using a vector encoding an anti-2,4-dinitrophenol (DNP) IgG1 antibody described in Clin Cancer Res 2005, 11(8), 3126 to 3135 (hereinafter, referred to as anti-DNP IgG1 antibody)] were added at each final concentrations of 1000, 100, 33, 11, 3.7, 1.2, 0.4, and 0.01 ng/mL to cause a reaction in a 5% CO2 incubator at 37° C. for 20 hours.
After the reaction, the cell fluid in each well was recovered, 10 mL of SM was added thereto, 200 μL per sample of CountBright Absolute Counting Beads, for flow cytometry (Molecular Probes) was added as control beads, and the fluid was centrifuged at 4° C. and 2000 rpm for 10 minutes, and then the supernatant was removed. The resultant was washed twice with SM, 10000 μg/mL of IgG from human serum (Sigma-Aldrich Co. LLC) diluted with SM was added at 300 μL/sample and suspended to cause a reaction at 4° C. for 30 minutes. […]
The cells were washed twice with SM, suspended by SM containing 1% of 7-AAD Staining Solution (BD Biosciences), allowed to stand at 4° C. for 10 minutes, and the fluorescent intensity was analyzed by flow cytometry (BD Biosciences, FACS CantoII).
Human eosinophils were detected as 7-AAD negative siglec8-PE positive fractions in granulocyte fractions of FSC-SSC deployment. Human basophils were detected as 7-AAD negative fractions, CD123-PC-Cy7 positive fractions, FcεRI-APC positive fractions in lymphocyte fractions of FSC-SSC deployment. The cell depletion activity was evaluated by analyzing the count number of each cell per a certain number of CountBright. […]

human CRTH2 = target: T1, human CRTH2 (Homo sapiens, UniProt Q9Y5Y4); assay: Binding activity against Azami-Green fusion human CRTH2-expressing CHO/DG44 cells; conditions: 2-30000 ng/mL, compared with monkey CRTH2; FIG. 21
T1 construct: expressed in transfected cells
T1 sequence (Q9Y5Y4 1-395): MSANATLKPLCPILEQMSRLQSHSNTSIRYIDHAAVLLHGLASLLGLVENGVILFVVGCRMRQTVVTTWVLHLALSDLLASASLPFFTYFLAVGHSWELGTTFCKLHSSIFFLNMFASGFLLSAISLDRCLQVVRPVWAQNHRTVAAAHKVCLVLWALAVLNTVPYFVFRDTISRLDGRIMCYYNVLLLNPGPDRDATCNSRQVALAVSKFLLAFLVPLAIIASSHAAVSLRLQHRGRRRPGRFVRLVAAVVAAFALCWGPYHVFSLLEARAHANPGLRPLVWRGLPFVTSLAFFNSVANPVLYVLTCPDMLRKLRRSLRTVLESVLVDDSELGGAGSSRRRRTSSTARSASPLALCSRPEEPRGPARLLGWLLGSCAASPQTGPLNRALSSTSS
Protocol: (§1) The Azami-Green fusion human CRTH2-expressing CHO/DG44 cells and the cynomolgus monkey CRTH2-expressing CHO/DG44 cells established in Example 24 were peeled using 0.02% EDTA solution (NACALAI TESQUE, Inc.), washed with PBS, and suspended with SM. Next, the cells were seeded in a 96-well plate such that each well had 2×10^5 cells, and humanized Lym2 antibody LV0HV1 or the anti-DNP IgG1 antibody at each of final concentrations 30000, 7500, 1875, 469, 117, 29, 7, and 2 ng/mL were added thereto to cause a reaction at 4° C. for 40 minutes.
(§2) After the cells were washed three times with SM, goat anti-Human IgG alexa 647 (Molecular Probes) diluted to a concentration of 10 μg/mL with SM was added thereto at 100 μL/well to perform a reaction at 4° C. for 40 minutes. The cells were washed with SM and resuspended with 100 μL of SM, and the fluorescent intensity was measured by flow cytometry (BD Biosciences, FACS CantoII).
(§3) The data was analyzed by FLowJo 7.65 (Tomy Digital Biology Co., Ltd.).

cynomolgus monkey CRTH2 = assay: Binding activity against Azami-Green fusion cynomolgus monkey CRTH2-expressing CHO/DG44 cells; conditions: 2-30000 ng/mL, compared with human CRTH2; FIG. 21
cynomolgus monkey CRTH2, sequence (as listed by the source): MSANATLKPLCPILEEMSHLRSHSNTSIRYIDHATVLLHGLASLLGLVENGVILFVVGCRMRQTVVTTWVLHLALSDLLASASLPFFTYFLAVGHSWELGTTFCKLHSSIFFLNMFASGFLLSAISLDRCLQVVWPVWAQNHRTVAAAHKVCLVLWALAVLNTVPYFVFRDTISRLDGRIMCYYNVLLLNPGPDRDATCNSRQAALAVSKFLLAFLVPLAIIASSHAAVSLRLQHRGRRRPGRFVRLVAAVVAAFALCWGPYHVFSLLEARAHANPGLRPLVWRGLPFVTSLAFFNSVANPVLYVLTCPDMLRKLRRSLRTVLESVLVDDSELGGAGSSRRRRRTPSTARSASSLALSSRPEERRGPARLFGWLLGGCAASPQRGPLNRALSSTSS
Protocol: as §1, §2, §3

B1: LV0HV1: humanized Lym2 antibody, VL LV0 (SEQ ID NO: 33), VH HV1 (SEQ ID NO: 51) (antibody, V domains shown)
VH: EVQLVESGGGVVQPGRSLRLSCAASGFTFSNYYMAWVRQAPGKGLEWVATISYDGSSTYYRDSVKGRFTISRDNAKNSLYLQMNSLRAEDTATYYCARHRGYYYSGAGYFDYWGQGTMVTVSS
VL: DIVMTQTPLSLPVTPGESASISCRSSQSLEYSDGYTYLEWYLQKPGQSPQVLIYGVSNRFSGVPDRFSGSGSGTDFTLKISRVEAEDVGVYYCFQATHDPLTFGQGTKLEIK
cytotoxic activity against eosinophils (human eosinophils; Example 8, 0.01-1000 ng/mL, FIG. 3): comparable to the chimeric Lym2 antibody chLym2
removal of eosinophils (human eosinophils; Example 14, 0.1-1000 ng/mL, FIG. 11): removed
binding activity against human CRTH2 (human CRTH2): substantially the same as each other
binding activity against monkey CRTH2 (cynomolgus monkey CRTH2): substantially the same as each other
